Assay [1] deals with T1, Npl4 (wild type, purified without Ufd1) (UniProt P33755 1-580).
T1 sequence (looked up): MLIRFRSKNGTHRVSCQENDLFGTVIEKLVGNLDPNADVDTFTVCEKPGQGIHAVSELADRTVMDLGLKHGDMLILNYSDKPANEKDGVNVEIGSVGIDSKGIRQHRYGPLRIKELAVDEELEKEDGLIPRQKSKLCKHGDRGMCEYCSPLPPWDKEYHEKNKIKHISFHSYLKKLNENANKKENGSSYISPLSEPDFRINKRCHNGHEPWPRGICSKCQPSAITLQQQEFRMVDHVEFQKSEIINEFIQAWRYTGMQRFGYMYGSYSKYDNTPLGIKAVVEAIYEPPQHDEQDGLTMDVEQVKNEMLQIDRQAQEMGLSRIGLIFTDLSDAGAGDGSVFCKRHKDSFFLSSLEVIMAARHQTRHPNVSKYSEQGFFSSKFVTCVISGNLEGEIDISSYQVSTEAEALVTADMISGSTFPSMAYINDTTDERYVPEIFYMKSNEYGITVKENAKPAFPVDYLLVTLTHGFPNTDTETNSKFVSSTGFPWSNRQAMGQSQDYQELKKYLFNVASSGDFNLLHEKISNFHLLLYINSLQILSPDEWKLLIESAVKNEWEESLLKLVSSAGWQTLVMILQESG
Nature of the assay: SEC.

The next assay addresses T2, Ufd1^L55R/Npl4 (UniProt P53044 1-361; P33755 1-580, L55R).
T2 sequence (looked up) 1: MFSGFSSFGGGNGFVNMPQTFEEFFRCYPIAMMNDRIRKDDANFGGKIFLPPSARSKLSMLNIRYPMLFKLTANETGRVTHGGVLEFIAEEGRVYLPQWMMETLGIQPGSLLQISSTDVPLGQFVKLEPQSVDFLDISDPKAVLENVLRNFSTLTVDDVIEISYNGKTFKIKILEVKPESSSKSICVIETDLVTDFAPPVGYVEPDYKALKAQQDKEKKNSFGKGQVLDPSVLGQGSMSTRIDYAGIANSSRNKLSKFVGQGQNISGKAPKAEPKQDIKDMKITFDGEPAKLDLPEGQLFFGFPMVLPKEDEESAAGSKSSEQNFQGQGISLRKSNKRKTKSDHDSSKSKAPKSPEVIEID
T2 sequence (looked up) 2: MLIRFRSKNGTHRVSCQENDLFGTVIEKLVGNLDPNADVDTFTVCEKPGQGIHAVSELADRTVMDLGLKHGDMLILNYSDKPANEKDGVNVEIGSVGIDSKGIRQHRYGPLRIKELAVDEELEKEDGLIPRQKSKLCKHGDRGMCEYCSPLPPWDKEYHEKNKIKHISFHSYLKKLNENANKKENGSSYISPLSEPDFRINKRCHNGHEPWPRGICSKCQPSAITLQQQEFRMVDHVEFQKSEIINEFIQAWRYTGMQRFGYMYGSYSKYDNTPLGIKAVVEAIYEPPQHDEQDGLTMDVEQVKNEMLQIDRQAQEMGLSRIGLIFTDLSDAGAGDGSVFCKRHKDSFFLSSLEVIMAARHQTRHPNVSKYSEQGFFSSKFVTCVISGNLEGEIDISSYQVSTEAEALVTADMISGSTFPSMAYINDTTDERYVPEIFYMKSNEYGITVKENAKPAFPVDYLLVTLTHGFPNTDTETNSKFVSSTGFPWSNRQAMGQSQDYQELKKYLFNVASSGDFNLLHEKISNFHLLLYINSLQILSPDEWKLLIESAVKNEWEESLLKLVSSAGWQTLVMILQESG
Nature of the assay: ATPase activity titration.

For assay [2], the target named is T3, Ufd1/Npl4 heterodimer (wild type) (UniProt P53044 1-361; P33755 1-580).
T3 sequence (looked up) 1: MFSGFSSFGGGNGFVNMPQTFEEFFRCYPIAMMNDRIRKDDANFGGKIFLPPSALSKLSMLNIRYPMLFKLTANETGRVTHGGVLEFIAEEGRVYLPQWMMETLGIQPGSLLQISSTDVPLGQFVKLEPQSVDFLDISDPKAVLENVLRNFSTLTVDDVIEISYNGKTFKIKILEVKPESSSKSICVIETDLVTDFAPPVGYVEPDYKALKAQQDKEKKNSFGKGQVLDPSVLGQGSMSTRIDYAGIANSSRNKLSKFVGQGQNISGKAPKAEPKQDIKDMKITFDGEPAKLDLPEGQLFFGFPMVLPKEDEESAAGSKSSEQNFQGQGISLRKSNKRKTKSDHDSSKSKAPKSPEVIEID
T3 sequence (looked up) 2: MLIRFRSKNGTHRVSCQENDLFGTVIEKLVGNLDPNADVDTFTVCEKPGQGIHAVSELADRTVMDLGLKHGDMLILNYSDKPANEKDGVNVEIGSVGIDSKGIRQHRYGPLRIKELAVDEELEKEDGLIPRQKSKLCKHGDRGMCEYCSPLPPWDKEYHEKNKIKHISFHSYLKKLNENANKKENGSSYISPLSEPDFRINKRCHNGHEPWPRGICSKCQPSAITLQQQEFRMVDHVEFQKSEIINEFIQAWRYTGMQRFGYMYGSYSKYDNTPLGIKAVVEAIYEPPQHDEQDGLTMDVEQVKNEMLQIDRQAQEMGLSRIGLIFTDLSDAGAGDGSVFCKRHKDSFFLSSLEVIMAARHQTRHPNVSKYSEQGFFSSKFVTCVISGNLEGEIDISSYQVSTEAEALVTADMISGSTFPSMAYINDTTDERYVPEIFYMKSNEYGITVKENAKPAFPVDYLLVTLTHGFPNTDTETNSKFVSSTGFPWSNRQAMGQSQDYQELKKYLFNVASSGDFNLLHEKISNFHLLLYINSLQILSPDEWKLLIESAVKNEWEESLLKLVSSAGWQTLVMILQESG
Nature of the assay: ATPase activity titration.

B1: Ufd1 (wild type, purified without Npl4) (natural protein, UniProt P53044 1-361, looked up)
chain: MFSGFSSFGGGNGFVNMPQTFEEFFRCYPIAMMNDRIRKDDANFGGKIFLPPSALSKLSMLNIRYPMLFKLTANETGRVTHGGVLEFIAEEGRVYLPQWMMETLGIQPGSLLQISSTDVPLGQFVKLEPQSVDFLDISDPKAVLENVLRNFSTLTVDDVIEISYNGKTFKIKILEVKPESSSKSICVIETDLVTDFAPPVGYVEPDYKALKAQQDKEKKNSFGKGQVLDPSVLGQGSMSTRIDYAGIANSSRNKLSKFVGQGQNISGKAPKAEPKQDIKDMKITFDGEPAKLDLPEGQLFFGFPMVLPKEDEESAAGSKSSEQNFQGQGISLRKSNKRKTKSDHDSSKSKAPKSPEVIEID
Regarding B1, the binding result in assay [1] is “binds”.

B2: Ufd1^L55R (purified without Npl4) (natural protein, UniProt P53044 1-361, looked up)
chain: MFSGFSSFGGGNGFVNMPQTFEEFFRCYPIAMMNDRIRKDDANFGGKIFLPPSARSKLSMLNIRYPMLFKLTANETGRVTHGGVLEFIAEEGRVYLPQWMMETLGIQPGSLLQISSTDVPLGQFVKLEPQSVDFLDISDPKAVLENVLRNFSTLTVDDVIEISYNGKTFKIKILEVKPESSSKSICVIETDLVTDFAPPVGYVEPDYKALKAQQDKEKKNSFGKGQVLDPSVLGQGSMSTRIDYAGIANSSRNKLSKFVGQGQNISGKAPKAEPKQDIKDMKITFDGEPAKLDLPEGQLFFGFPMVLPKEDEESAAGSKSSEQNFQGQGISLRKSNKRKTKSDHDSSKSKAPKSPEVIEID
For B2, the binding result in assay [1] is on record as “binds”.

B3: Cdc48 (enzyme, yeast, UniProt P25694 1-835, looked up)
chain: MGEEHKPLLDASGVDPREEDKTATAILRRKKKDNMLLVDDAINDDNSVIAINSNTMDKLELFRGDTVLVKGKKRKDTVLIVLIDDELEDGACRINRVVRNNLRIRLGDLVTIHPCPDIKYATRISVLPIADTIEGITGNLFDVFLKPYFVEAYRPVRKGDHFVVRGGMRQVEFKVVDVEPEEYAVVAQDTIIHWEGEPINREDEENNMNEVGYDDIGGCRKQMAQIREMVELPLRHPQLFKAIGIKPPRGVLMYGPPGTGKTLMARAVANETGAFFFLINGPEVMSKMAGESESNLRKAFEEAEKNAPAIIFIDEIDSIAPKRDKTNGEVERRVVSQLLTLMDGMKARSNVVVIAATNRPNSIDPALRRFGRFDREVDIGIPDATGRLEVLRIHTKNMKLADDVDLEALAAETHGYVGADIASLCSEAAMQQIREKMDLIDLDEDEIDAEVLDSLGVTMDNFRFALGNSNPSALRETVVESVNVTWDDVGGLDEIKEELKETVEYPVLHPDQYTKFGLSPSKGVLFYGPPGTGKTLLAKAVATEVSANFISVKGPELLSMWYGESESNIRDIFDKARAAAPTVVFLDELDSIAKARGGSLGDAGGASDRVVNQLLTEMDGMNAKKNVFVIGATNRPDQIDPAILRPGRLDQLIYVPLPDENARLSILNAQLRKTPLEPGLELTAIAKATQGFSGADLLYIVQRAAKYAIKDSIEAHRQHEAEKEVKVEGEDVEMTDEGAKAEQEPEVDPVPYITKEHFAEAMKTAKRSVSDAELRRYEAYSQQMKASRGQFSNFNFNDAPLGTTATDNANSNNSAPSGAGAAFGSNAEEDDDLYS
What is called Kd is the concentration at which binding is half-saturated. High values mean weaker binding, low ones tighter binding. Turning to B3, the Kd with Ufd1^L55R/Npl4 worked out at 500 nM; in assay [2], 1000 nM.

Source of the values: publication PMC9992269 (Molecular cell, 2023).
